According to patent US20080274112A1, “Nogo Receptor Antagonists” (priority 2003, published 2008):
Entries after “also recorded” stand apart in the source; their conditions may differ.

Key:
Nogo66 + sNogoR344-Fc = molecular target: T1, Nogo66 + sNogoR344-Fc (Rattus norvegicus, UniProt Q99M75, A303T/C287S/C43R/E284G/T53A); assay: mAb/Fab inhibition of Nogo66 binding to sNogoR344-Fc (ELISA)
T1 construct: amino acid residues 26-344 of rat Nogo receptor-1; made in house
T1 sequence (Q99M75 26-344 C43R/T53A/E284G/C287S/A303T): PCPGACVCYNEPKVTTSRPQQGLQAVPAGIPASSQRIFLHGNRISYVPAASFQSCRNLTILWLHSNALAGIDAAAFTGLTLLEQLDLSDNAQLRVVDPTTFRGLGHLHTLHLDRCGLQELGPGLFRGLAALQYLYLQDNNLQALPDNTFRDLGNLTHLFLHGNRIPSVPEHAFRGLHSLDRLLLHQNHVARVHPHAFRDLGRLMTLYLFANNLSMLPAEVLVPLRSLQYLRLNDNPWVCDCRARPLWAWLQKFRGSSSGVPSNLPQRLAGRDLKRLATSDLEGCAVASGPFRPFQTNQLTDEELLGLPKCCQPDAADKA
Experimental: (§1) 0.5 μg of a soluble Nogo receptor-1 fusion protein comprising amino acid residues 26-344 of rat Nogo receptor-1 and the hinge and Fc region of the rat IgG1 molecule (sNogoR344-Fc) produced as described below was immobilized on 250 μg of protein-A- or wheatgerm agglutinin-conjugated SPA beads (Amersham Pharmacia Biotech) for 2 hours at 25° C. SPA beads coupled with Fc-sNogoR-1, anti-Nogo receptor-1 mAb and 1 μl ^125I-Nogo66 (Amersham, 2000 Ci/mmol, 1 nM) in 50 μl of the HEPES-buffered incubation medium (10 mM HEPES, pH 7.4, 0.1% bovine serum albumin, 0.1% ovalbumin, 2 mM MgCl2, 2 mM CaCl2 and protease inhibitors) was added to each sample well. After 16 hours, radioactivity was measured in quadruplicate samples using a TopCount® (Packard). IC50 values were calculated from a curve-fit analysis (FIG. 3) (PRISM, GraphPad Software, NJ). In some experiments, we also used AP-ligand conjugates (e.g. AP-Nogo66) and detected binding by monitoring alkaline phosphatase activity. We also assayed the ability of the mAbs to block binding of the ligands MAG-Fc and AP-OM-gp to Nogo receptor-1.
(§2) The calculated IC50 for Nogo66 for 7E11 and 1H2 were 400 nM and 60 nM, respectively. The data from ELISAs monitoring mAb-mediated inhibition of binding of the three ligands to Nogo receptor-1 are summarized in Table 6.
(§3) We also performed ELISA binding assays using the Fab-phage 14D5.

MAG + sNogoR344-Fc = molecular target: T2, MAG + sNogoR344-Fc (Rattus norvegicus, UniProt Q99M75, A303T/C287S/C43R/E284G/T53A); assay: mAb/Fab inhibition of MAG binding to sNogoR344-Fc (ELISA)
T2 construct: amino acid residues 26-344 of rat Nogo receptor-1; made in house
T2 sequence (Q99M75 26-344 C43R/T53A/E284G/C287S/A303T): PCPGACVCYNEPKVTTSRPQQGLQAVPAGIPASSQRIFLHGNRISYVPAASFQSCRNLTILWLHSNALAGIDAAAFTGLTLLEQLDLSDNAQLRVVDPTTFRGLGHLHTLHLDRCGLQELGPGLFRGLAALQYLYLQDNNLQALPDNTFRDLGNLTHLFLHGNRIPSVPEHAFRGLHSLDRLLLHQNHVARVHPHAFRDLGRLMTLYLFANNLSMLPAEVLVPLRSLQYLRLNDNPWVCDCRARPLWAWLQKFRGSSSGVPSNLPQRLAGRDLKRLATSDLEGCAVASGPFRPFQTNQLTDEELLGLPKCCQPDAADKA
Experimental: as §1, §2, §3

rat NgR1 = molecular target: T3, rat NgR1 (Rattus norvegicus, UniProt Q99M75); assay: Antibody binding to rat Nogo receptor-1
T3 sequence (Q99M75 27-447): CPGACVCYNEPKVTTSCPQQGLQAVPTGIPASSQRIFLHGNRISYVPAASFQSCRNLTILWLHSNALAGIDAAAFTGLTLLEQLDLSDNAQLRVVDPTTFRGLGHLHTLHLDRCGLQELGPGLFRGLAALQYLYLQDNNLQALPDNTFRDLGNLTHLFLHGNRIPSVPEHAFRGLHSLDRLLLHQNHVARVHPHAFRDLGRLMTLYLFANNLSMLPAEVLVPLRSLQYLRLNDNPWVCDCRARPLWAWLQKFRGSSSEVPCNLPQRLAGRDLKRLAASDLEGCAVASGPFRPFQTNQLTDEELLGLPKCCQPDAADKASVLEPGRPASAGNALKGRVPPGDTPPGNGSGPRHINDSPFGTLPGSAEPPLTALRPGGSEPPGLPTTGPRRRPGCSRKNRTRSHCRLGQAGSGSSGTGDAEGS

mouse NgR1 = molecular target: T4, mouse NgR1 (Mus musculus, UniProt Q99PI8); assay: Antibody binding to mouse Nogo receptor-1
T4 sequence (Q99PI8 27-447): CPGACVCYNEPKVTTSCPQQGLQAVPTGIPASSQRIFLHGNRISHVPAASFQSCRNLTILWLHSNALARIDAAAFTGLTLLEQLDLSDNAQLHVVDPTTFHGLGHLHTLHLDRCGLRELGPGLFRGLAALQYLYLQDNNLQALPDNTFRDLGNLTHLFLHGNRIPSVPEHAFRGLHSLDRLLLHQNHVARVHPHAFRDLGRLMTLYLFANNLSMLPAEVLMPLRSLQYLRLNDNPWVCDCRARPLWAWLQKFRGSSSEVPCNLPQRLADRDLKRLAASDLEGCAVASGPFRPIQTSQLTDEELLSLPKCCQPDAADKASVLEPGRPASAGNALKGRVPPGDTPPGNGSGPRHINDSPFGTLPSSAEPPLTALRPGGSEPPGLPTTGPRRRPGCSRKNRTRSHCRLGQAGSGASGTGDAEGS

mouse NgR3 = molecular target: T5, mouse NgR3 (Mus musculus, UniProt Q8K0S5); assay: Antibody binding to mouse Nogo receptor-3; settings: species not stated
T5 sequence (Q8K0S5 25-424): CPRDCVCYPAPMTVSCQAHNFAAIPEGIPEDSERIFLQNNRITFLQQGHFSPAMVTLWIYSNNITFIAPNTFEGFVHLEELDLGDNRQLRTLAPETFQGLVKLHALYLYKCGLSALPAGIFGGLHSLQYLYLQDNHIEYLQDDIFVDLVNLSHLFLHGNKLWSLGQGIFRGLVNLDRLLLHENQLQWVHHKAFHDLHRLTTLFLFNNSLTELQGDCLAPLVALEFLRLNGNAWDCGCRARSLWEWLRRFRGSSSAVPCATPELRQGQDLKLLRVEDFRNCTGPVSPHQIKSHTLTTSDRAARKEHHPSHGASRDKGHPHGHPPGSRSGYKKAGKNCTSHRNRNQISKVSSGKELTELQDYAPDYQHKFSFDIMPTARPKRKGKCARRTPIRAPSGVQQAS

inhibition of binding of Nogo66 to sNogoR344-Fc (Nogo66 + sNogoR344-Fc): inhibited binding
EC50 (Nogo66 + sNogoR344-Fc; curve-fit analysis): 1700 nM
inhibition of binding of MAG to sNogoR344-Fc (MAG + sNogoR344-Fc): inhibited binding
percent displacement, MAG + sNogoR344-Fc (MAG + sNogoR344-Fc; 30 nM antibody): 30 nM (60%)
EC50 (MAG + sNogoR344-Fc; curve-fit analysis): 500 nM
binding to rat NgR1 (rat NgR1): bound; also recorded: binds well
binding to mouse NgR1 (mouse NgR1): poorly
binding to NgR3 (mouse NgR3): does not bind well
B1: 7E11: murine monoclonal anti-Nogo receptor-1 antibody, IgG1 kappa, ATCC PTA-4587; immunogen rat Nogo receptor-1 residues 110-125 (antibody, V domains shown)
VH: VQLQESGAELVMPGASVKMSCKASGYTFTDYWMHWVKQRPGQGLEWIGAIDPSDSYSSYNQNFKGKATLTVDGSSSTAYMQLSSLTSEDSAVYYCARRITEAGAWFAYWGQGTTVT
VL: DVVMTQTPLSLPVSLGDQASISCRSSQSLVHSNGNTYLHWYLQKPGQSPKLLIYKVSNRFSGVPDRFSGSGSGTDFTLKISRVDAEDLGVYFCSQSTHVPFTFGGGTKLEIKRADAAPTVSISHH
